Results reported in patent publication US20140213513A1 (Sanofi, priority 2012, published 2014).
*1 amine or outer side, *2 acyl side, *3 side chain or, on linkers, in order; H or OH if unused. Where no end group is shown, it is not given here. Side-chain parts run from the residue outwards. [ ]: non-standard residue; d: D form. The star is where a group is joined. γGlu = O=C(O)[C@H](CCC(=O)[*:2])N[*:1]; Stearoyl = CCCCCCCCCCCCCCCCCC(=O)*; Palmitoyl = CCCCCCCCCCCCCCCC(=O)*; Aib = CC(C)(N)C(=O)O

T1: human GIP receptor (human, UniProt P48546 22-466)
T1 sequence (looked up): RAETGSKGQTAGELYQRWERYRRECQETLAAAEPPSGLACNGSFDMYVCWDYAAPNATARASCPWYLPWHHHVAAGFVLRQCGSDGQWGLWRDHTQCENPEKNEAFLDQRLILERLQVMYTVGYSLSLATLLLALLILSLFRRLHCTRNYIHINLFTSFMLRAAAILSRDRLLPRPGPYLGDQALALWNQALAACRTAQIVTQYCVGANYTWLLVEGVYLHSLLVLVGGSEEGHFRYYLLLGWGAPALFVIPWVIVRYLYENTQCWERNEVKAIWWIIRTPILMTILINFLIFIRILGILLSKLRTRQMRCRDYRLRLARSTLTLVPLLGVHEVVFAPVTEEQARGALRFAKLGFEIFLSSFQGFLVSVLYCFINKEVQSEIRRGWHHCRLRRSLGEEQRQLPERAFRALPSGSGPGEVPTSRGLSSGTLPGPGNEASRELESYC

B1: exendin-4 peptide analogue SEQ ID NO: 8 (peptide)
peptide: Y[Aib]QGTFTSDLSIQK([γGlu-Palmitoyl])EKLAA[Aib]EFIEWLKNTGPSSGAPPPS-NH2
modifications: N-terminus assumed
SMILES: CCCCCCCCCCCCCCCC(=O)N[C@@H](CCC(=O)NCCCC[C@H](NC(=O)[C@H](CCC(N)=O)NC(=O)[C@@H](NC(=O)[C@H](CO)NC(=O)[C@H](CC(C)C)NC(=O)[C@H](CC(=O)O)NC(=O)[C@H](CO)NC(=O)[C@@H](NC(=O)[C@H](Cc1ccccc1)NC(=O)[C@@H](NC(=O)CNC(=O)[C@H](CCC(N)=O)NC(=O)C(C)(C)NC(=O)[C@@H](N)Cc1ccc(O)cc1)[C@@H](C)O)[C@@H](C)O)[C@@H](C)CC)C(=O)N[C@@H](CCC(=O)O)C(=O)N[C@@H](CCCCN)C(=O)N[C@@H](CC(C)C)C(=O)N[C@@H](C)C(=O)N[C@@H](C)C(=O)NC(C)(C)C(=O)N[C@@H](CCC(=O)O)C(=O)N[C@@H](Cc1ccccc1)C(=O)N[C@H](C(=O)N[C@@H](CCC(=O)O)C(=O)N[C@@H](Cc1c[nH]c2ccccc12)C(=O)N[C@@H](CC(C)C)C(=O)N[C@@H](CCCCN)C(=O)N[C@@H](CC(N)=O)C(=O)N[C@H](C(=O)NCC(=O)N1CCC[C@H]1C(=O)N[C@@H](CO)C(=O)N[C@@H](CO)C(=O)NCC(=O)N[C@@H](C)C(=O)N1CCC[C@H]1C(=O)N1CCC[C@H]1C(=O)N1CCC[C@H]1C(=O)N[C@@H](CO)C(N)=O)[C@@H](C)O)[C@@H](C)CC)C(=O)O
B2: exendin-4 peptide analogue SEQ ID NO: 41 (peptide)
peptide: Y[Aib]QGTFTSDLSKQK([γGlu-Stearoyl])DSKAAQDFIEWLKAGGPSSGAPPPS-NH2
modifications: N-terminus assumed
SMILES: CCCCCCCCCCCCCCCCCC(=O)N[C@@H](CCC(=O)NCCCC[C@H](NC(=O)[C@H](CCC(N)=O)NC(=O)[C@H](CCCCN)NC(=O)[C@H](CO)NC(=O)[C@H](CC(C)C)NC(=O)[C@H](CC(=O)O)NC(=O)[C@H](CO)NC(=O)[C@@H](NC(=O)[C@H](Cc1ccccc1)NC(=O)[C@@H](NC(=O)CNC(=O)[C@H](CCC(N)=O)NC(=O)C(C)(C)NC(=O)[C@@H](N)Cc1ccc(O)cc1)[C@@H](C)O)[C@@H](C)O)C(=O)N[C@@H](CC(=O)O)C(=O)N[C@@H](CO)C(=O)N[C@@H](CCCCN)C(=O)N[C@@H](C)C(=O)N[C@@H](C)C(=O)N[C@@H](CCC(N)=O)C(=O)N[C@@H](CC(=O)O)C(=O)N[C@@H](Cc1ccccc1)C(=O)N[C@H](C(=O)N[C@@H](CCC(=O)O)C(=O)N[C@@H](Cc1c[nH]c2ccccc12)C(=O)N[C@@H](CC(C)C)C(=O)N[C@@H](CCCCN)C(=O)N[C@@H](C)C(=O)NCC(=O)NCC(=O)N1CCC[C@H]1C(=O)N[C@@H](CO)C(=O)N[C@@H](CO)C(=O)NCC(=O)N[C@@H](C)C(=O)N1CCC[C@H]1C(=O)N1CCC[C@H]1C(=O)N1CCC[C@H]1C(=O)N[C@@H](CO)C(N)=O)[C@@H](C)CC)C(=O)O
B3: exendin-4 peptide analogue SEQ ID NO: 65 (peptide)
peptide: YAEGTFTSDLSKQKEEEAVRLFIEWLKAGGPSSGAPPPS
modifications: Aib at 2; Lys14 side-chain NH2 acylated with (S)-4-Carboxy-4-octadecanoylamino-butyryl- (yE-x70); C-terminal amide
B4: exendin-4 peptide analogue SEQ ID NO: 40 (peptide)
peptide: Y[Aib]QGTFTSDLSKQK([γGlu-Palmitoyl])ESKAAQEFIEWLKAGGPSSGAPPPS-NH2
modifications: N-terminus assumed
SMILES: CCCCCCCCCCCCCCCC(=O)N[C@@H](CCC(=O)NCCCC[C@H](NC(=O)[C@H](CCC(N)=O)NC(=O)[C@H](CCCCN)NC(=O)[C@H](CO)NC(=O)[C@H](CC(C)C)NC(=O)[C@H](CC(=O)O)NC(=O)[C@H](CO)NC(=O)[C@@H](NC(=O)[C@H](Cc1ccccc1)NC(=O)[C@@H](NC(=O)CNC(=O)[C@H](CCC(N)=O)NC(=O)C(C)(C)NC(=O)[C@@H](N)Cc1ccc(O)cc1)[C@@H](C)O)[C@@H](C)O)C(=O)N[C@@H](CCC(=O)O)C(=O)N[C@@H](CO)C(=O)N[C@@H](CCCCN)C(=O)N[C@@H](C)C(=O)N[C@@H](C)C(=O)N[C@@H](CCC(N)=O)C(=O)N[C@@H](CCC(=O)O)C(=O)N[C@@H](Cc1ccccc1)C(=O)N[C@H](C(=O)N[C@@H](CCC(=O)O)C(=O)N[C@@H](Cc1c[nH]c2ccccc12)C(=O)N[C@@H](CC(C)C)C(=O)N[C@@H](CCCCN)C(=O)N[C@@H](C)C(=O)NCC(=O)NCC(=O)N1CCC[C@H]1C(=O)N[C@@H](CO)C(=O)N[C@@H](CO)C(=O)NCC(=O)N[C@@H](C)C(=O)N1CCC[C@H]1C(=O)N1CCC[C@H]1C(=O)N1CCC[C@H]1C(=O)N[C@@H](CO)C(N)=O)[C@@H](C)CC)C(=O)O
B5: exendin-4 peptide analogue SEQ ID NO: 38 (peptide)
peptide: Y[Aib]EGTFTSDLSIQK([γGlu-Palmitoyl])EEQAAHEFIEWLKR[Aib]GPSSGAPPPS-NH2
modifications: N-terminus assumed
SMILES: CCCCCCCCCCCCCCCC(=O)N[C@@H](CCC(=O)NCCCC[C@H](NC(=O)[C@H](CCC(N)=O)NC(=O)[C@@H](NC(=O)[C@H](CO)NC(=O)[C@H](CC(C)C)NC(=O)[C@H](CC(=O)O)NC(=O)[C@H](CO)NC(=O)[C@@H](NC(=O)[C@H](Cc1ccccc1)NC(=O)[C@@H](NC(=O)CNC(=O)[C@H](CCC(=O)O)NC(=O)C(C)(C)NC(=O)[C@@H](N)Cc1ccc(O)cc1)[C@@H](C)O)[C@@H](C)O)[C@@H](C)CC)C(=O)N[C@@H](CCC(=O)O)C(=O)N[C@@H](CCC(=O)O)C(=O)N[C@@H](CCC(N)=O)C(=O)N[C@@H](C)C(=O)N[C@@H](C)C(=O)N[C@@H](Cc1c[nH]cn1)C(=O)N[C@@H](CCC(=O)O)C(=O)N[C@@H](Cc1ccccc1)C(=O)N[C@H](C(=O)N[C@@H](CCC(=O)O)C(=O)N[C@@H](Cc1c[nH]c2ccccc12)C(=O)N[C@@H](CC(C)C)C(=O)N[C@@H](CCCCN)C(=O)N[C@@H](CCCNC(=N)N)C(=O)NC(C)(C)C(=O)NCC(=O)N1CCC[C@H]1C(=O)N[C@@H](CO)C(=O)N[C@@H](CO)C(=O)NCC(=O)N[C@@H](C)C(=O)N1CCC[C@H]1C(=O)N1CCC[C@H]1C(=O)N1CCC[C@H]1C(=O)N[C@@H](CO)C(N)=O)[C@@H](C)CC)C(=O)O
B6: exendin-4 peptide analogue SEQ ID NO: 33 (peptide)
peptide: Y[Aib]QGTFTSDLSIQK([γGlu-Palmitoyl])EKRAALEFIEWLKNTGPSSGAPPPS-NH2
modifications: N-terminus assumed
SMILES: CCCCCCCCCCCCCCCC(=O)N[C@@H](CCC(=O)NCCCC[C@H](NC(=O)[C@H](CCC(N)=O)NC(=O)[C@@H](NC(=O)[C@H](CO)NC(=O)[C@H](CC(C)C)NC(=O)[C@H](CC(=O)O)NC(=O)[C@H](CO)NC(=O)[C@@H](NC(=O)[C@H](Cc1ccccc1)NC(=O)[C@@H](NC(=O)CNC(=O)[C@H](CCC(N)=O)NC(=O)C(C)(C)NC(=O)[C@@H](N)Cc1ccc(O)cc1)[C@@H](C)O)[C@@H](C)O)[C@@H](C)CC)C(=O)N[C@@H](CCC(=O)O)C(=O)N[C@@H](CCCCN)C(=O)N[C@@H](CCCNC(=N)N)C(=O)N[C@@H](C)C(=O)N[C@@H](C)C(=O)N[C@@H](CC(C)C)C(=O)N[C@@H](CCC(=O)O)C(=O)N[C@@H](Cc1ccccc1)C(=O)N[C@H](C(=O)N[C@@H](CCC(=O)O)C(=O)N[C@@H](Cc1c[nH]c2ccccc12)C(=O)N[C@@H](CC(C)C)C(=O)N[C@@H](CCCCN)C(=O)N[C@@H](CC(N)=O)C(=O)N[C@H](C(=O)NCC(=O)N1CCC[C@H]1C(=O)N[C@@H](CO)C(=O)N[C@@H](CO)C(=O)NCC(=O)N[C@@H](C)C(=O)N1CCC[C@H]1C(=O)N1CCC[C@H]1C(=O)N1CCC[C@H]1C(=O)N[C@@H](CO)C(N)=O)[C@@H](C)O)[C@@H](C)CC)C(=O)O
B7: exendin-4 peptide analogue SEQ ID NO: 39 (peptide)
peptide: Y[Aib]QGTFTSDLSKQK([γGlu-Palmitoyl])ESKAAQDFIEWLKAGGPSSGAPPPS-NH2
modifications: N-terminus assumed
SMILES: CCCCCCCCCCCCCCCC(=O)N[C@@H](CCC(=O)NCCCC[C@H](NC(=O)[C@H](CCC(N)=O)NC(=O)[C@H](CCCCN)NC(=O)[C@H](CO)NC(=O)[C@H](CC(C)C)NC(=O)[C@H](CC(=O)O)NC(=O)[C@H](CO)NC(=O)[C@@H](NC(=O)[C@H](Cc1ccccc1)NC(=O)[C@@H](NC(=O)CNC(=O)[C@H](CCC(N)=O)NC(=O)C(C)(C)NC(=O)[C@@H](N)Cc1ccc(O)cc1)[C@@H](C)O)[C@@H](C)O)C(=O)N[C@@H](CCC(=O)O)C(=O)N[C@@H](CO)C(=O)N[C@@H](CCCCN)C(=O)N[C@@H](C)C(=O)N[C@@H](C)C(=O)N[C@@H](CCC(N)=O)C(=O)N[C@@H](CC(=O)O)C(=O)N[C@@H](Cc1ccccc1)C(=O)N[C@H](C(=O)N[C@@H](CCC(=O)O)C(=O)N[C@@H](Cc1c[nH]c2ccccc12)C(=O)N[C@@H](CC(C)C)C(=O)N[C@@H](CCCCN)C(=O)N[C@@H](C)C(=O)NCC(=O)NCC(=O)N1CCC[C@H]1C(=O)N[C@@H](CO)C(=O)N[C@@H](CO)C(=O)NCC(=O)N[C@@H](C)C(=O)N1CCC[C@H]1C(=O)N1CCC[C@H]1C(=O)N1CCC[C@H]1C(=O)N[C@@H](CO)C(N)=O)[C@@H](C)CC)C(=O)O

Key:
Test in all cases: cell-based or functional assay
[1] = biological target: T1, human GIP receptor
[2] = biological target: human GLP-1 receptor (human, UniProt P43220 24-463)
[3] = biological target: human glucagon receptor (human, UniProt P47871 26-477)
Sequence of human glucagon receptor (P47871 26-477): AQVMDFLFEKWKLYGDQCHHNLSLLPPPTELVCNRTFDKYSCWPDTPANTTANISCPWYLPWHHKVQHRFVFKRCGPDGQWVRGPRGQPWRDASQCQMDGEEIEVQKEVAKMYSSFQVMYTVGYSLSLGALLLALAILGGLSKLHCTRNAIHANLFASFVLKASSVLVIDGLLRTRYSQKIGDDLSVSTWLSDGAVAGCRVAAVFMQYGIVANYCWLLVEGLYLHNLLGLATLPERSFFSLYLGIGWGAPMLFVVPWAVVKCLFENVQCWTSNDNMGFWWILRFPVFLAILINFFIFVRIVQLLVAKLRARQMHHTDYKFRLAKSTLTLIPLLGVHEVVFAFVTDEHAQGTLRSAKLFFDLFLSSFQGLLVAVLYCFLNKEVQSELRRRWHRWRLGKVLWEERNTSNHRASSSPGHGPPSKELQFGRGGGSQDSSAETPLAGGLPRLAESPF

Molecule	EC50 hGIP R [1] [pM]	EC50 hGLP-1 R [2] [pM]	EC50 hGLUC R [3] [pM]
Tyr(1)Ile(12)-GLP1 (peptide)	3660	5	
B1	26	8.7	803
B2	186	24.1	26.5
B3	12		26800
B4	53.6	5.5	22.6
B5	7.4	9	22500
B6	88.2		109
B7	38.5	4.5	19.2
